Blank lines part the entries; values can stand above or below the binder they belong to.
Key:
Experiment in all cases: ELISA, hybridoma supernatant
[1] = target: T1, huCD98hc ECD Avi-His (human, UniProt P08195 105-529)
T1 construct: biotinylated on the Avi tag where captured on streptavidin; also called Human CD98-AVI-His; Human CD98hc-AVI-His
T1 sequence: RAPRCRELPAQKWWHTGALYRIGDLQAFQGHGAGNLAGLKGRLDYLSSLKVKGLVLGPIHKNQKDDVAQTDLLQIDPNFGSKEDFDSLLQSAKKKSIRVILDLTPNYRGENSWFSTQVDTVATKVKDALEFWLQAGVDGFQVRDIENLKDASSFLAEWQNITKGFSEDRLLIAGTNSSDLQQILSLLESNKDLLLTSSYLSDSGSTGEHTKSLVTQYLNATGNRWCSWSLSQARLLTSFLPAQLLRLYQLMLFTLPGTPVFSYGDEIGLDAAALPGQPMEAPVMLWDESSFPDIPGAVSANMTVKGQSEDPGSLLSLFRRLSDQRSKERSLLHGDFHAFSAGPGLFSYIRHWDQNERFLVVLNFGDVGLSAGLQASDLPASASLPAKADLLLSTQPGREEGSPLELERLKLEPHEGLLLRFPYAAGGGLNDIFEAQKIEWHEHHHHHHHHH
Experimental: (§1) Briefly, 96-well polystyrene plates were coated with 5 μg/ml of streptavidin (Thermo Fisher, Cat #PI21125) in coating buffer (0.05M carbonate buffer, pH 9.6, Sigma, Cat #C3041) overnight at 4° C. Coated plates were then blocked with ELISA diluent (PBS+0.5% BSA+0.05% Tween20) for one hour. Blocking buffer was removed and human, cyno, or mouse Avi-His-tagged CD98hc and Avi-His-tagged human TfR polypeptides were added at 1 μg/ml in ELISA diluent and captured for 1 hour at room temperature. After washing three times with 300 μl of PBST (PBS+0.05% Tween20, Thermo 28352), the hybridoma cell culture supernatants or 1 μg/ml of commercially available purified mouse anti-human CD98hc monoclonal antibody (Sigma Aldrich, Cat #SAB 4700503) and rat anti-mouse CD98hc antibody (Bio-Rad Laboratories, Hercules, CA, Cat #MCA2684) were added (50 μl/well) to each well. After 30 minutes of incubation at room temperature, the plates were washed three times with 300 μl of PBST. […] After a final set of washes (3×300 μl in PBST), 50 μl/well of BioFx TMB substrate (Surmodics, Eden Praire, MN, Cat #TMBW-1000-01) was added to the wells. The reaction was then quenched after 5-10 mins with 50 μl/well of 2N sulfuric acid. The plates were read for absorbance at 450 nm on a SpectraMax M5 (Molecular Devices, Sunnyvale, CA) using SoftMax Pro software.

[2] = target: T2, Cyno CD98hc ECD Avi-His (cynomolgus macaque, UniProt P08195 105-529 (human entry))
T2 construct: biotinylated on the Avi tag where captured on streptavidin; also called Cyno CD98-AVI-His; Cyno CD98hc-AVI-His
T2 chain: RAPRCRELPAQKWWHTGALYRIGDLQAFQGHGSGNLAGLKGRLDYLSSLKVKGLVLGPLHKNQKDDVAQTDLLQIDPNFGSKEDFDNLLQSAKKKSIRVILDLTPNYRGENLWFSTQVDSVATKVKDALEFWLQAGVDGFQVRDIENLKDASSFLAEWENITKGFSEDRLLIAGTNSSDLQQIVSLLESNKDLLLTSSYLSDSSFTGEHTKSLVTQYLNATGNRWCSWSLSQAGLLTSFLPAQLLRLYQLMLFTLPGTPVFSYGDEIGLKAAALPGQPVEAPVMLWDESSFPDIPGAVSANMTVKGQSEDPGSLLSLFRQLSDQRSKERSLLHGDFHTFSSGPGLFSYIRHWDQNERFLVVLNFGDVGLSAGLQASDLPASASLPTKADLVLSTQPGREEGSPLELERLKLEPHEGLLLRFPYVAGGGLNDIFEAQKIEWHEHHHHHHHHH
Experimental: as §1

[3] = target: T3, muCD98hc ECD Avi-His (mouse, UniProt P10852 100-526)
T3 construct: biotinylated on the Avi tag where captured on streptavidin; also called Mouse CD98-AVI-His; Mouse CD98hc-AVI-His
T3 sequence: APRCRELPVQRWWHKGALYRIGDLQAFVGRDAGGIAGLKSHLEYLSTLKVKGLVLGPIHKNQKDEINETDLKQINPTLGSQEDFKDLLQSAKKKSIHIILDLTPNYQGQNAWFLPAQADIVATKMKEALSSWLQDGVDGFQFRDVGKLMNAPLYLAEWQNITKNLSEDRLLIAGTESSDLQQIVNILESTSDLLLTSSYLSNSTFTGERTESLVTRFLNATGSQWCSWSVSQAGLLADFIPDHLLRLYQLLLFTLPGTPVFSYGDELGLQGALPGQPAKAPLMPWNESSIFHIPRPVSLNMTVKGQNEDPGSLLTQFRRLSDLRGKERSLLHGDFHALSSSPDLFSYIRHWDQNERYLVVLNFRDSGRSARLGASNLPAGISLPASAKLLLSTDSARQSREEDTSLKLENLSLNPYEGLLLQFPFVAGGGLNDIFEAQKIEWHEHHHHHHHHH
Experimental: as §1

[4] = target: T4, Human TfR-AVI-His (control) (human, UniProt P02786 89-760)
T4 construct: control protein; also called Avi-His-tagged human TfR; human transferrin receptor
Experimental: as §1

T4 sequence (P02786 89-760 limits assumed): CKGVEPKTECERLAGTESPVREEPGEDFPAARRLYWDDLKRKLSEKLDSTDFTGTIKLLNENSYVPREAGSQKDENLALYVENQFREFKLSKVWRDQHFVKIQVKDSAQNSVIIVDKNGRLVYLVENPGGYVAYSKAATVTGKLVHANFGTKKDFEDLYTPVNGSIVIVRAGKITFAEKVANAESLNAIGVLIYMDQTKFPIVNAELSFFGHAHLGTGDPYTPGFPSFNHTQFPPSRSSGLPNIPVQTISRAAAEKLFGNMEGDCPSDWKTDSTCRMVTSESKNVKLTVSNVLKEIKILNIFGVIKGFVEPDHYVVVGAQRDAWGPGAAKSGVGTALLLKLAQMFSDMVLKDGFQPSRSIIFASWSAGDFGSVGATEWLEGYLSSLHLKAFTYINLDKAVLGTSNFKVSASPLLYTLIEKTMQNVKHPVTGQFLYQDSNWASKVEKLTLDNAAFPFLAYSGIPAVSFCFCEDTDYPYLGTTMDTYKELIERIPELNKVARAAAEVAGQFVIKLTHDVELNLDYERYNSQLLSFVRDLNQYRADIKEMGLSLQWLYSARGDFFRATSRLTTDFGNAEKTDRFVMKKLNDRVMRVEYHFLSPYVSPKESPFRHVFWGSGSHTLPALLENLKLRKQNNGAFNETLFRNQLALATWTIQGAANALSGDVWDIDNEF

B1: CD98HC.04.022 (antibody, V domains shown)
VH: EVQLQQSGAELVKPGASVKLSCTASGFNIKDTFMHWMKQRPEQGLEWIGRIDPANANTRYDPKFQGKATITTDTSSNTAYLQLSSLTSEDTAVYYCARDVYYDVWGAGTTVTVSS
VL: DILMTQSPSSMSVSLGDTVTITCHASQGISSNIGWLQQKPGRSFKGLIYHGSNLEDGVPSRFTGSGSGTDYSLTISGLESEDFADYYCVQYAQFPRTFGGGTKLEIQ
notes: hybridoma IgG
OD450 [1]: 1.36
OD450 [2]: 1.89
OD450 [3]: 0.0554
OD450 [4]: 0.0533

B3: CD98HC.03.004 (antibody, V domains shown)
VH: DVQLQESGPGLVKPSQSLSLTCTVTGYSITNNYAWNWIRRFPGNKLEWMAYISYSGYTSYNPSLKSRISITRDTSKNQFFLQLNSVTTEDTATYYCTGYFYYYGGGSFDYWGQGTTLTVSS
VL: QAVVTQESALTTSPGETVTLTCRSSTGAVTTSNFANWVQEKPDHLFTGLIRGSNNRAPGVPARFSGSLIGDKAALTITGARTEDEAIYFCALWYSDHWVFGGGTKLTVL
notes: hybridoma IgG
OD450 [1]: 1.49
OD450 [2]: 1.4
OD450 [3]: 0.0938
OD450 [4]: 0.0905

B4: CD98HC.04.018 (antibody, V domains shown)
VH: QIQLVQSGPELKKPGETVKISCKASGYTFRNYGMNWVKQAPGKGLKWMGWINTYTGEPTYAEDFKGRFAFSLETSASTAYLQINKLKNEDEATYFCARGEAHWYFDVWGAGTTVTVSS
VL: QIVLTQSPAIMSASLGERVTMTCTASSSVSSSYLYWYQQKPGSSPKLWIYSIFNLASGVPARFSGSGSGTSYSLTISSMEAEDAATYYCHQYHRSPPTFGGGTKLEIK
notes: hybridoma IgG
OD450 [1]: 1.64
OD450 [2]: 1.97
OD450 [3]: 0.079
OD450 [4]: 0.0717

B5: CD98HC.04.046 (antibody, V domains shown)
VH: QIQLVQSGPVLKKPGETVKISCKASGYTFTNFGMNWVKQAPGKGLKWMGWIDTYTREPTYVDDFKGRFAFSLETSVTTAYLQINDLKNEDSATYFCARGESHWYFDVWGAGTTVTVSS
VL: QIVLTQSPAIMSASLGERVTMTCIVSSSVSSSYLYWYQQKPGSSPKLWIYSTSILASGVPGRFSGSGSGTSYSLTISSMEAEDAATYYCHQYHRSPPTFGGGTKLEIK
notes: hybridoma IgG
OD450 [1]: 1.38
OD450 [2]: 1.88
OD450 [3]: 0.0817
OD450 [4]: 0.0719

B6: CD98HC.04.013 (antibody, V domains shown)
VH: EVQLVESGGDLGMPGGSLKLSCAASGFALSGYDMSWVRQTPDKRLEWVAYLSSGGGSTYYPYTVKGRFTISRDNAQNTLYLQMSSLKSEDTAIYYCARHSEVRPWFGYWGQGTLVTVSA
VL: DIVMSQSPSSLAVSVGEKVTLTCKSSQSLLYSGNQKNYLAWYQQNPGQSPKLLIYWASTRESGVPDRFTGSGSGTDFTLTISSVKAEDLAVYYCQQYYTYPPTFGAGTKLGLK
notes: hybridoma IgG
OD450 [1]: 1.17
OD450 [2]: 2.04
OD450 [3]: 0.0717
OD450 [4]: 0.0667

B8: CD98HC.04.045 (antibody, V domains shown)
VH: QIQLVQSGPELKKPGETVKISCKASGYSITNFGMNWVKQAPGKGLKWMGWVNTYTGEPTYADDFKGRFAFSLETSASTASLQINNLKNEDTATYFCTRSVITYTMDYWGQGTSVTVSS
VL: DIQLTQSPSSLSASLGERVSLTCRASQEISGYLSWLQQKPDGTIKRLIYAASTLDSGVPKRFSGSRSGSDYSLTISSLESEDFADYYCLQYASYPRTFGGGTKVEIK
notes: hybridoma IgG
OD450 [1]: 1.51
OD450 [2]: 1.34
OD450 [3]: 0.0764
OD450 [4]: 0.103

B9: CD98HC.04.012 (antibody, V domains shown)
VH: QVQLQQSGADLVRPGDSVKISCKGSGYTFTDNTLHWVKQSHAKSLEWIGVISPYYGDASYNQKFKGKATMTVDKSSSTAYMELARLTSEDSAIYYCARVGGRLRLGYYFDHWGQGTTLTVSS
VL: NIMMTQSPSSLAVSAGEKVTMNCKSSQSVLSSSNQKNYLAWYQQKPGQSPKLLIYWASTRESGVPARFTGSGSGTDFSLTITSVQAEDLAVYYCLQYLSSYTFGGGTKLEIK
notes: hybridoma IgG
OD450 [1]: 1.64
OD450 [2]: 1.73
OD450 [3]: 0.0786
OD450 [4]: 0.074

B11: CD98HC.03.010 (antibody, V domains shown)
VH: EVQLQQSGTELVKPGASVKLSCTASGLDIKDTYLHWVKQRPEQGLEWIGKIDPANGNTKYNPKFQGKATITADTSSNTAYLQLSSLTSEDTAVHYCTTPYYSGSSYGDYWGQGTTLTVSS
VL: QIVLTQSPAIMSASPGEKVTLTCSASSSVSSSYLYWYQQKPGSSPKLWIYSTSNLASGVPARFSGSGSGTSYSLTISSMEAEDAASYFCHQWSRYPLTFGAGTKLELK
notes: hybridoma IgG
OD450 [1]: 1
OD450 [2]: 1.77
OD450 [3]: 0.0625
OD450 [4]: 0.0588

Further lines, results first:

OD450 [1]: 1.7
OD450 [2]: 1.76
OD450 [3]: 0.073
OD450 [4]: 0.0639
B2: CD98HC.04.064 (antibody, V domains shown)
VH: QVQLQQPGAELVRPGASVKLSCKASGYTFTSYWMNWVRQRPGQGLEWIGLIDPSDSETHYNQMFKDRATLTVDKSSSTAYMQLSSLTSADPAVYYCARASYGKGYFDYWGQGTTLTVSS
VL: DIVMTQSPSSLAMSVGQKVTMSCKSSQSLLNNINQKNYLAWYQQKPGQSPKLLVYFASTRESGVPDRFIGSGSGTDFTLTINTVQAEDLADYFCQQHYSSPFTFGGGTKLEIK
notes: hybridoma IgG

OD450 [1]: 1.61
OD450 [2]: 1.63
OD450 [3]: 0.0607
OD450 [4]: 0.0561
B7: CD98HC.04.062 (antibody, V domains shown)
VH: EVQLVESGGDLVKPGGSLKLSCTASRFAFSTYDMSWVRQTPEKRLEWVAYISSGGGSTYFPDTVKGRFTISRDNAKNTLYLQMSSLKSEDTAMYYCARQDGHYPWFPYWGQGTLVTVSA
VL: DIVMSQSPSSLAVSVGEKVTMSCKSSQSLLYSGNQKTYLAWYQQKPGQSPKPLIYWASTRESGIPDRFTGSGSGTDFTLTISSVKAEDLAVYYCQQYYSYPPTFGAGTKLELK
notes: hybridoma IgG

OD450 [1]: 1.34
OD450 [2]: 1.73
OD450 [3]: 0.121
OD450 [4]: 0.0976
B10: CD98HC.04.058 (antibody, V domains shown)
VH: QVQLQQSGAELVRPGVSVKISCKASGYTFTDHTMHWVKQSHARSLEWIGVISTYFGDASYNPKFKGKATMTVDKSSNTAYMELARLTSEDSAIYYCARVGGRLRLGYYFDYWGQGTTLTVSS
VL: NIMMTQSPSSLAVSAGEKVTMNCKSSQTVLYSSNQKNYLAWYQQKPGQSPKLLIYWASTRESGVPDRFTGSGSGTDFTLTISSVQVEDLAVYYCHQYLSSYTFGGGTKLEIK
notes: hybridoma IgG

OD450 [1]: 1.66
OD450 [2]: 1.91
OD450 [3]: 0.0738
OD450 [4]: 0.0629
B12: CD98HC.04.063 (antibody, V domains shown)
VH: EVKLEESGGGLVQPGGSMILSCVASGFTFSNSWMNWVRQSPEKGLEWVAEIRLRSNNYATHYAESVKGRFTISRDDSKSTVYLQMNNLRAEDTGIYYCSRGDPGAYWGQGTLVTVSA
VL: DIQMTQSSSYLSVSLGNRVTITCKASDHIKNWLAWFQQKPGNAPRLLISGATILETGVPSRFSGSGSGKDYTLSITSLQTEDVATYYCQQYWSTPYTFGGGTKLEIK
notes: hybridoma IgG
